In US20220380463A1 (Adimab, published 2022):

T1: Cynomolgus CD3εδ Fc heterodimer (Cy CD3ε Fc / CD3δ Fc-HIS) (cynomolgus, UniProt Q95LI8 22-100)
T1 chain 1: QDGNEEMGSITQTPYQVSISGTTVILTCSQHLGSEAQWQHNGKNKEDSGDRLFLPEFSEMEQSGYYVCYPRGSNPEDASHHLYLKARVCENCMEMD
T1 chain 2: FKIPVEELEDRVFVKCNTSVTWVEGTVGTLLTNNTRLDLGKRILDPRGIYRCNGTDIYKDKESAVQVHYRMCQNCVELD


Columns and labels:
[1] = molecular target: T1, Cynomolgus CD3εδ Fc heterodimer (Cy …); assay: BLI (Octet), IgG on AHC sensor, pH 7.4
[2] = molecular target: T1, Cynomolgus CD3εδ Fc heterodimer (Cy …); assay: BLI (Octet), IgG on AHC sensor, pH 6.0
[3] = molecular target: T2, human CD3 on CD3+ Jurkat cells (human, UniProt P07766 23-207); assay: flow cytometry, 100 nM IgG on CD3+ Jurkat cells, pH 6.0
T2 construct: whole, on cells; Native CD3 complex on cells; the other CD3 chains are not specified for this assay; also called Human CD3+ Jurkat
In short: (§1)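 Jurkat cells incubated 20 min on ice with 100 nM yeast-produced IgG in PBS + 0.1% BSA at pH 6.0 or pH 7.4, with all washes and staining at the same pH. Bound antibody detected with anti-human IgG-RPE, dead cells excluded by propidium iodide; MFI measured by flow cytometry.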

[4] = molecular target: T2, human CD3 on CD3+ Jurkat cells; assay: flow cytometry, 100 nM IgG on CD3+ Jurkat cells, pH 7.4
In short: as §1

[5] = molecular target: T2, human CD3 on CD3+ Jurkat cells; assay: flow cytometry on CD3+ Jurkat cells, ratio of MFI at pH 6.0 to pH 7.4
In short: as §1

T2 sequence (P07766 23-207): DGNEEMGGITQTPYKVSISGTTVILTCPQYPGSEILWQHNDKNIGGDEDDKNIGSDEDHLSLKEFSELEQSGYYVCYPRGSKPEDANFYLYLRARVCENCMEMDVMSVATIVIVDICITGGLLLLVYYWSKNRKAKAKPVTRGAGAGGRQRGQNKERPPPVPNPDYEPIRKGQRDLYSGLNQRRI

Row | Kd [1] | koff [1] | kon [1] | koff [2] | MFI pH 6.0 [3] | MFI pH 7.4 [4] | MFI pH 6.0/MFI pH 7.4 [5] | Binder
1 | 0.145 µM | 0.0355 s⁻¹ | 245000 M⁻¹ s⁻¹ | 0.0248 s⁻¹ |  |  |  | SAD10319_P01_E02 (ADI-57304) (antibody, V domains shown, IgG; also called Ab240) VH: QVQLVQSGAEVKKPGASVKVSCKASGYTFTSDFMHWVRQAPGQRLEWMGWINPATGATKYSQKFQGRVTITRDTSASTAYMELSSLRSEDTAVYYCARDAYGHYFYDHWGQGTLVTVSS VL: DIVMTQSPDSLAVSLGERATINCKSSQSLLNARTGKNYLAWYQQKPGQPPKLLIYWASTRESGVPDRFSGSGSGTDFTLTISSLQAEDVAVYYCKQSYSRRTFGGGTKVEIK
2 | 0.0686 µM | 0.0208 s⁻¹ | 304000 M⁻¹ s⁻¹ | 0.00585 s⁻¹ |  |  |  | SAD10320_P01_E02 (ADI-57349) (antibody, V domains shown, IgG; also called Ab55) VH: QVQLVQSGAEVKKPGASVKVSCKASGFNIKDYYMHWVRQAPGQRLAWMGWIDLENANTIYDAKFQGRVTITRDTSASTAYMELSSLRSEDTAVYYCARDAYGRHFYDVWGQGTLVTVSS VL: DIVMTQSPDSLAVSLGERATINCKSSQSLLNARTGKNYLAWYQQKPGQPPKLLIYWASTRESGVPDRFSGSGSGTDFTLTISSLQAEDVAVYYCKQSYSRRTFGGGTKVEIK
3 | 0.134 µM | 0.0331 s⁻¹ | 247000 M⁻¹ s⁻¹ | 0.0122 s⁻¹ |  |  |  | SAD10319_P02_F06 (ADI-57324) (antibody, V domains shown, IgG; also called Ab13) VH: QVQLVQSGAEVKKPGASVKVSCKASGYTFLSYAMHWVRQAPGQRLERMGWINPSTGATDYSQKFQGRVTITRDTSASTAYMELSSLRSEDTAVYYCARDAYGHYFYDVWGQGTLVTVSS VL: DIVMTQSPDSLAVSLGERATINCKSSQSLLNARTGKNYLAWYQQKPGQPPKLLIYWASTRESGVPDRFSGSGSGTDFTLTISSLQAEDVAVYYCKQSYSRRTFGGGTKVEIK
4 | 0.0641 µM | 0.0208 s⁻¹ | 324000 M⁻¹ s⁻¹ | 0.0215 s⁻¹ |  |  |  | SAD10319_P02_E04 (ADI-57311) (antibody, V domains shown, IgG; also called Ab252) VH: QVQLVQSGAEVKKPGASVKVSCKASGYTFESYYMHWVRQAPGQRLERMGSIVAGTGATKYSQKFQGRVTITRDTSASTAYMELSSLRSEDTAVYYCARDHYGRYFYDVWGQGTPVTVSS VL: DIVMTQSPDSLAVSLGERATINCKSSQSLLNARTGKNYLAWYQQKPGQPPKLLIYWASTRESGVPDRFSGSGSGTDFTLTISSLQAEDVAVYYCKQSYSRRTFGGGTKVEIK
5 | 0.0626 µM | 0.0182 s⁻¹ | 291000 M⁻¹ s⁻¹ | 0.015 s⁻¹ |  |  |  | SAD10319_P04_G10 (ADI-57334) (antibody, V domains shown, IgG; also called Ab32) VH: QVQLVQSGAEVKKPGASVKVSCKASGYTFTDYYMHWVRQAPGQRLEWMGWINPATGATAYSQKFQGRVTITRDTSASTAYMELSSLRSEDTAVYYCARDAYGHHFYDVWGQGTLVTVSS VL: DIVMTQSPDSLAVSLGERATINCKSSQSLLNARTGKNYLAWYQQKPGQPPKLLIYWASTRESGVPDRFSGSGSGTDFTLTISSLQAEDVAVYYCKQSYSRRTFGGGTKVEIK
6 | 0.0513 µM | 0.0255 s⁻¹ | 496000 M⁻¹ s⁻¹ | 0.023 s⁻¹ |  |  |  | SAD10319_P02_C06 (ADI-57322) (antibody, V domains shown, IgG; also called Ab10) VH: QVQLVQSGAEVKKPGASVKVSCKASGYTFTSYAMHWVRQAPGQRLEWMGWINPVTGATVYSQKFQGRVTITRDTSASTAYMELSSLRSEDTAVYYCARDAYGHYFYDVWGQGTLVTVSS VL: DIVMTQSPDSLAVSLGERATINCKSSQSLLNARTGKNYLAWYQQKPGQPPKLLIYWASTRESGVPDRFSGSGSGTDFTLTISSLQAEDVAVYYCKQSYSRRTFGGGTKVEIK
7 |  |  |  |  | 59 MFI | 52 MFI | 1.1 | SAD10319_P04_G11 (ADI-48641) (antibody, V domains shown, IgG; also called Ab39) VH: QVQLVQSGAEVKKPGASVKVYCKASGYTFTTYEMHWVRQAPGQRLEWMGSINAGDANTKYSQKFQGRVTITRDTSASTAYMELSSLRSEDTAVYYCARDAYHHYFYDVWGQGTLVTVSS VL: DIVMTQSPDSLAVSLGERATINCKSSQSLLNARTGKNYLAWYQQKPGQPPKLLIYWASTRESGVPDRFSGSGSGTDFTLTISSLQAEDVAVYYCKQSYSRRTFGGGTKVEIK
8 |  |  |  |  | 332 MFI | 55 MFI | 6.1 | SAD10319_P04_E12 (ADI-48642) (antibody, V domains shown, IgG; also called Ab43) VH: QVQLVQSGAEVKKPGASVKVSCKASGYTFTSYPMHWVRQAPGQRLEWMGWIDAGTGLTTYSQKFQGRVTITRDTSASTAYMELSSLRSEDTAVYYCARDHYHRYFYDMWGQGTLVTVSS VL: DIVMTQSPDSLAVSLGERATINCKSSQSLLNARTGKNYLAWYQQKPGQPPKLLIYWASTRESGVPDRFSGSGSGTDFTLTISSLQAEDVAVYYCKQSYSRRTFGGGTKVEIK
9 | 0.0606 µM | 0.0267 s⁻¹ | 440000 M⁻¹ s⁻¹ | 0.00251 s⁻¹ |  |  |  | SAD10319_P02_E06 (ADI-57323) (antibody, V domains shown, IgG; also called Ab12) VH: QVQLVQSGAEVKKPGASVKVSCKASGYTFADYAMHWVRQAPGQRLAWMGWINPHTGATFYSQKFQGRVTITRDTSASTAYMELSSLRSEDTAVYYCARDAYGRYFYDHWGQGTLVTVSS VL: DIVMTQSPDSLAVSLGERATINCKSSQSLLNARTGKNYLAWYQQKPGQPPKLLIYWASTRESGVPDRFSGSGSGTDFTLTISSLQAEDVAVYYCKQSYSRRTFGGGTKVEIK
10 | 0.0302 µM | 0.0115 s⁻¹ | 383000 M⁻¹ s⁻¹ | 0.0327 s⁻¹ |  |  |  | SAD10319_P02_A06 (ADI-57320) (antibody, V domains shown, IgG; also called Ab8) VH: QVQLVQSGAEVKKPGASVKVSCKASGYTFDAYAMHWVRQAPGQRLEWMGWIDAGTGATKYSQKFQGRVTITRDTSASTAYMELSSLRSEDTAVYYCARDHYGHYFYDVWGQGTLVTVSS VL: DIVMTQSPDSLAVSLGERATINCKSSQSLLNARTGKNYLAWYQQKPGQPPKLLIYWASTRESGVPDRFSGSGSGTDFTLTISSLQAEDVAVYYCKQSYSRRTFGGGTKVEIK
11 | 0.0588 µM | 0.0199 s⁻¹ | 338000 M⁻¹ s⁻¹ | 0.0127 s⁻¹ |  |  |  | SAD10319_P04_B10 (ADI-57332) (antibody, V domains shown, IgG; also called Ab30) VH: QVQLVQSGAEVKKPGASVKVSCKASGYTFTSTFMHWVRQAPGQRLEWMGFIDAGTGATKYSQKFQGRVTITRDTSASTAYMELSSLRSEDTAVYYCARDAYGHYFYDHWGQGTLVTVSS VL: DIVMTQSPDSLAVSLGERATINCKSSQSLLNARTGKNYLAWYQQKPGQPPKLLIYWASTRESGVPDRFSGSGSGTDFTLTISSLQAEDVAVYYCKQSYSRRTFGGGTKVEIK
12 | 0.0751 µM | 0.0159 s⁻¹ | 212000 M⁻¹ s⁻¹ | 0.0204 s⁻¹ |  |  |  | SAD10320_P01_B03 (ADI-57354) (antibody, V domains shown, IgG; also called Ab61) VH: QVQLVQSGAEVKKPGASVKVSCKASGFNIKDYYMHWVRQAPGQRLEWMGWIDLENANTIYDAKFQGRVTITRDTSASTAYMELSSLRSDDTAVYYCARDQHGRYFYDVWGQGTLVTVSS VL: DIVMTQSPDSLAVSLGERATINCKSSQSLLNARTGKNYLAWYQQKPGQPPKLLIYWASTRESGVPDRFSGSGSGTDFTLTISSLQAEDVAVYYCKQSYSRRTFGGGTKVEIK
13 | 0.117 µM | 0.0301 s⁻¹ | 257000 M⁻¹ s⁻¹ | 0.0317 s⁻¹ |  |  |  | SAD10319_P02_F04 (ADI-57312) (antibody, V domains shown, IgG; also called Ab253) VH: QVQLVQSGAEVKKPGASVKVSCKASGYTFDSYTMHWVRQAPGQRLEWMGYINPDTGATYYSQKFQGRVTITRDTSASTAYMELSSLRSEDTAVYYCARDAYHHYFYDVWGQGTLVTVSS VL: DIVMTQSPDSLAVSLGERATINCKSSQSLLNARTGKNYLAWYQQKPGQPPKLLIYWASTRESGVPDRFSGSGSGTDFTLTISSLQAEDVAVYYCKQSYSRRTFGGGTKVEIK
14 | 0.141 µM | 0.0166 s⁻¹ | 118000 M⁻¹ s⁻¹ | 0.017 s⁻¹ |  |  |  | SAD10320_P02_F06 (ADI-57370) (antibody, V domains shown, IgG; also called Ab87) VH: QVQLVQSGAEVKKPGASVKVSCKASGFNIKDYYMHWVRQAPGQRLAWMGWIDLENANTIYDAKFQGRVTITRDTSASTAYMELSSLRSEDTAVYYCARDAYGRFHYDVWGQGTLVTVSS VL: DIVMTQSPDSLAVSLGERATINCKSSQSLLNARPGKNYLAWYQQKPGQPPKLLIYWASTRESGVPDRFSGSGSGTDFTLTISSLQAEDVAVYYCKQSYSRRTFGGGTKVEIK
15 | 0.078 µM | 0.0171 s⁻¹ | 220000 M⁻¹ s⁻¹ | 0.0188 s⁻¹ |  |  |  | SAD10319_P02_H06 (ADI-48633) (antibody, V domains shown, IgG; also called Ab16) VH: QVQLVQSGAEVKKPGASVKVSCKASGYTFTAYVMHWVRQAPGQRLEWMGSIDAGTGNTKYSQKFQGRVTITRDTSASTAYMELSSLRSEDTAVYYCARDAYGHYFYDHWGQGTLVTVSS VL: DIVMTQSPDSLAVSLGERATINCKSSQSLLNARTGKNYLAWYQQKPGQPPKLLIYWASTRESGVPDRFSGSGSGTDFTLTISSLQAEDVAVYYCKQSYSRRTFGGGTKVEIK
16 | 0.0784 µM | 0.0174 s⁻¹ | 222000 M⁻¹ s⁻¹ | 0.0271 s⁻¹ |  |  |  | SAD10320_P01_A03 (ADI-57353) (antibody, V domains shown, IgG; also called Ab60) VH: QVQLVQSGAEVKKPGASVKVSCKASGFNIKDYYMHWVRQAPGQRLEWMGWIDLENANTIYDAKFQGRVTITRDTSASTAYMELSSLRSEDTAVYYCARDHRGRYFYDVWGQGTLVTVSS VL: DIVMTQSPDSLAVSLGERATINCKSSQSLLNARTGKNYLAWYQQKPGQPPKLLIYWASTRESGVPDRFSGSGSGTDFTLTISSLQAEDVAVYYCKQSSHRRTFGGGTKVEIK
